According to US20230322953A1 (HARBOUR BIOMED SHANGHAI, published 2023):

T1: human BCMA (human, UniProt Q02223 1-184)
T1 construct: whole, on cells; also called hBCMA; TNFRSF17
T1 sequence (looked up): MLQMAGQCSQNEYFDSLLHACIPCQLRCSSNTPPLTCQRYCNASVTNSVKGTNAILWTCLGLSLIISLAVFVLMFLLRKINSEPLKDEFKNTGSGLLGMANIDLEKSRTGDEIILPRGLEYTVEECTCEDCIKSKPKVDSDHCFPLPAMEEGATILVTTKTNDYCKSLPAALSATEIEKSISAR


target: T1, human BCMA; assay: FACS on NCI-H929 cells

EC50	Maximum MFI	Binder
4.6 nM	8590	PR003867 (bispecific antibody, human IgG1, lambda, L234A L235A, BCMAxCD3, Fab-Fc-VH (structure 11); CD3 Fab of PR003886, BCMA VH of PR004559; IgG1 knob/hole, LALA) light: QAVVTQEPSLTVSPGGTVTLTCRSSTGAVTTSNYANWVQQKPGQAPRGLIGGTNKRAPWTPARFSGSLLGDKAALTLLGAQPEDEAEYFCALWYSNLWVFGGGTKLTVLGQPKAAPSVTLFPPSSEELQANKATLVCLISDFYPGAVTVAWKADSSPVKAGVETTTPSKQSNNKYAASSYLSLTPEQWKSHRSYSCQVTHEGSTVEKTVAPTECS heavy: not shown EVQLVETGGGLIQPGGSLRLSCAASGFTVSDNYMTWVRQAPGKGLEWVSVIFSGGKTYYADSVKGRFTISRDNAKNTLYLQMNSLRAEDTALYYCARRNYDDTRGTDVFDIWGQGTMVTVSSASEPKSSDKTHTCPPCPAPEAAGGPSVFLFPPKPKDTLMISRTPEVTCVVVDVSHEDPEVKFNWYVDGVEVHNAKTKPREEQYNSTYRVVSVLTVLHQDWLNGKEYKCKVSNKALPAPIEKTISKAKGQPREPQVCTLPPSREEMTKNQVSLSCAVKGFYPSDIAVEWESNGQPENNYKTTPPVLDSDGSFFLVSKLTVDKSRWQQGNVFSCSVMHEALHNHYTQKSLSLSPGK
1.2 nM	9840	PR003875 (bispecific antibody, human IgG1, lambda, L234A L235A, BCMAxCD3, Fab-Fc-VH (structure 11); CD3 Fab of PR003886, BCMA VH of PR004570; IgG1 knob/hole, LALA) light: QAVVTQEPSLTVSPGGTVTLTCRSSTGAVTTSNYANWVQQKPGQAPRGLIGGTNKRAPWTPARFSGSLLGDKAALTLLGAQPEDEAEYFCALWYSNLWVFGGGTKLTVLGQPKAAPSVTLFPPSSEELQANKATLVCLISDFYPGAVTVAWKADSSPVKAGVETTTPSKQSNNKYAASSYLSLTPEQWKSHRSYSCQVTHEGSTVEKTVAPTECS heavy: not shown EVQLVETGGGLIQPGGSLRLSCAASGFTVSDAYMTWVRQAPGKGLEWVSVIFSGGRTYYADSVKGRFTISRDNAKNTLYLQMNSLRAEDTALYYCARRNYDQTRGTDVFDIWGQGTMVTVSSASEPKSSDKTHTCPPCPAPEAAGGPSVFLFPPKPKDTLMISRTPEVTCVVVDVSHEDPEVKFNWYVDGVEVHNAKTKPREEQYNSTYRVVSVLTVLHQDWLNGKEYKCKVSNKALPAPIEKTISKAKGQPREPQVCTLPPSREEMTKNQVSLSCAVKGFYPSDIAVEWESNGQPENNYKTTPPVLDSDGSFFLVSKLTVDKSRWQQGNVFSCSVMHEALHNHYTQKSLSLSPGK
1.3 nM	10200	PR003873 (bispecific antibody, human IgG1, lambda, L234A L235A, BCMAxCD3, Fab-Fc-VH (structure 11); CD3 Fab of PR003886, BCMA VH of PR004568; IgG1 knob/hole, LALA) light: QAVVTQEPSLTVSPGGTVTLTCRSSTGAVTTSNYANWVQQKPGQAPRGLIGGTNKRAPWTPARFSGSLLGDKAALTLLGAQPEDEAEYFCALWYSNLWVFGGGTKLTVLGQPKAAPSVTLFPPSSEELQANKATLVCLISDFYPGAVTVAWKADSSPVKAGVETTTPSKQSNNKYAASSYLSLTPEQWKSHRSYSCQVTHEGSTVEKTVAPTECS heavy: not shown EVQLVETGGGLIQPGGSLRLSCAASGFTVSDAYMTWVRQAPGKGLEWVSVIFSGGRTYVADSVKGRFTISRDNAKNTLYLQMNSLRAEDTALYYCARRNYDDTRGTDVFDIWGQGTMVTVSSASEPKSSDKTHTCPPCPAPEAAGGPSVFLFPPKPKDTLMISRTPEVTCVVVDVSHEDPEVKFNWYVDGVEVHNAKTKPREEQYNSTYRVVSVLTVLHQDWLNGKEYKCKVSNKALPAPIEKTISKAKGQPREPQVCTLPPSREEMTKNQVSLSCAVKGFYPSDIAVEWESNGQPENNYKTTPPVLDSDGSFFLVSKLTVDKSRWQQGNVFSCSVMHEALHNHYTQKSLSLSPGK
1.7 nM	11100	PR003877 (bispecific antibody, human IgG1, lambda, L234A L235A, BCMAxCD3, Fab-Fc-VH (structure 11); CD3 Fab of PR003886, BCMA VH of PR004572; IgG1 knob/hole, LALA) light: QAVVTQEPSLTVSPGGTVTLTCRSSTGAVTTSNYANWVQQKPGQAPRGLIGGTNKRAPWTPARFSGSLLGDKAALTLLGAQPEDEAEYFCALWYSNLWVFGGGTKLTVLGQPKAAPSVTLFPPSSEELQANKATLVCLISDFYPGAVTVAWKADSSPVKAGVETTTPSKQSNNKYAASSYLSLTPEQWKSHRSYSCQVTHEGSTVEKTVAPTECS heavy: not shown EVQLVETGGGLIQPGGSLRLSCAASGFTVSDSYMTWVRQAPGKGLEWVSVIFSGGKTYVADSVKGRFTISRDNAKNTLYLQMNSLRAEDTALYYCARRNYDDTRGTDVFDIWGQGTMVTVSSASEPKSSDKTHTCPPCPAPEAAGGPSVFLFPPKPKDTLMISRTPEVTCVVVDVSHEDPEVKFNWYVDGVEVHNAKTKPREEQYNSTYRVVSVLTVLHQDWLNGKEYKCKVSNKALPAPIEKTISKAKGQPREPQVCTLPPSREEMTKNQVSLSCAVKGFYPSDIAVEWESNGQPENNYKTTPPVLDSDGSFFLVSKLTVDKSRWQQGNVFSCSVMHEALHNHYTQKSLSLSPGK
1.5 nM	9240	PR003878 (bispecific antibody, human IgG1, lambda, L234A L235A, BCMAxCD3, Fab-Fc-VH (structure 11); CD3 Fab of PR003886, BCMA VH of PR004573; IgG1 knob/hole, LALA) light: QAVVTQEPSLTVSPGGTVTLTCRSSTGAVTTSNYANWVQQKPGQAPRGLIGGTNKRAPWTPARFSGSLLGDKAALTLLGAQPEDEAEYFCALWYSNLWVFGGGTKLTVLGQPKAAPSVTLFPPSSEELQANKATLVCLISDFYPGAVTVAWKADSSPVKAGVETTTPSKQSNNKYAASSYLSLTPEQWKSHRSYSCQVTHEGSTVEKTVAPTECS heavy: not shown EVQLVETGGGLIQPGGSLRLSCAASGFTVSDSYMTWVRQAPGKGLEWVSVIFSGGKTYYADSVKGRFTISRDNAKNTLYLQMNSLRAEDTALYYCARRNYDDTRGTDVFDIWGQGTMVTVSSASEPKSSDKTHTCPPCPAPEAAGGPSVFLFPPKPKDTLMISRTPEVTCVVVDVSHEDPEVKFNWYVDGVEVHNAKTKPREEQYNSTYRVVSVLTVLHQDWLNGKEYKCKVSNKALPAPIEKTISKAKGQPREPQVCTLPPSREEMTKNQVSLSCAVKGFYPSDIAVEWESNGQPENNYKTTPPVLDSDGSFFLVSKLTVDKSRWQQGNVFSCSVMHEALHNHYTQKSLSLSPGK
2.6 nM	10300	PR003881 (bispecific antibody, human IgG1, lambda, L234A L235A, BCMAxCD3, Fab-Fc-VH (structure 11); CD3 Fab of PR003886, BCMA VH of PR004561; IgG1 knob/hole, LALA) light: QAVVTQEPSLTVSPGGTVTLTCRSSTGAVTTSNYANWVQQKPGQAPRGLIGGTNKRAPWTPARFSGSLLGDKAALTLLGAQPEDEAEYFCALWYSNLWVFGGGTKLTVLGQPKAAPSVTLFPPSSEELQANKATLVCLISDFYPGAVTVAWKADSSPVKAGVETTTPSKQSNNKYAASSYLSLTPEQWKSHRSYSCQVTHEGSTVEKTVAPTECS heavy: not shown EVQLVETGGGLIQPGGSLRLSCAASGFTVSDSYMTWVRQAPGKGLEWVSVIFSGGNTYYADSVKGRFTISRDNAKNTLYLQMNSLRAEDTALYYCARRNYDQTLGTDVFDIWGQGTMVTVSSASEPKSSDKTHTCPPCPAPEAAGGPSVFLFPPKPKDTLMISRTPEVTCVVVDVSHEDPEVKFNWYVDGVEVHNAKTKPREEQYNSTYRVVSVLTVLHQDWLNGKEYKCKVSNKALPAPIEKTISKAKGQPREPQVCTLPPSREEMTKNQVSLSCAVKGFYPSDIAVEWESNGQPENNYKTTPPVLDSDGSFFLVSKLTVDKSRWQQGNVFSCSVMHEALHNHYTQKSLSLSPGK
2 nM	10600	PR003871 (bispecific antibody, human IgG1, lambda, L234A L235A, BCMAxCD3, Fab-Fc-VH (structure 11); CD3 Fab of PR003886, BCMA VH of PR004566; IgG1 knob/hole, LALA) light: QAVVTQEPSLTVSPGGTVTLTCRSSTGAVTTSNYANWVQQKPGQAPRGLIGGTNKRAPWTPARFSGSLLGDKAALTLLGAQPEDEAEYFCALWYSNLWVFGGGTKLTVLGQPKAAPSVTLFPPSSEELQANKATLVCLISDFYPGAVTVAWKADSSPVKAGVETTTPSKQSNNKYAASSYLSLTPEQWKSHRSYSCQVTHEGSTVEKTVAPTECS heavy: not shown EVQLVETGGGLIQPGGSLRLSCAASGFTVSDSYMTWVRQAPGKGLEWVSVIFSGGRTYYSDSVKGRFTISRDNAKNTLYLQMNSLRAEDTALYYCARRNYDDTRGTDVFDIWGQGTMVTVSSASEPKSSDKTHTCPPCPAPEAAGGPSVFLFPPKPKDTLMISRTPEVTCVVVDVSHEDPEVKFNWYVDGVEVHNAKTKPREEQYNSTYRVVSVLTVLHQDWLNGKEYKCKVSNKALPAPIEKTISKAKGQPREPQVCTLPPSREEMTKNQVSLSCAVKGFYPSDIAVEWESNGQPENNYKTTPPVLDSDGSFFLVSKLTVDKSRWQQGNVFSCSVMHEALHNHYTQKSLSLSPGK
